The results in this text go back to patent EP2670776B1 (F. Hoffmann-La Roche AG, dated 2018).

B2: Knob F241S/F243R (knob Fc with F241S/F243R mutations) (other, name in EU numbering)
chain: DKTHTSPPSPAPELLGGPSVSLRPPKPKDTLMISRTPEVTCVVVDVSHEDPEVKFNWYVDGVEVHNAKTKPREEQYNSTYRVVSVLTVLHQDWLNGKEYKCKVSNKALPAPIEKTISKAKGQPREPQVYTLPPSREEMTKNQVSLWCLVKGFYPSDIAVEWESNGQPENNYKTTPPVLDSDGSFFLYSKLTVDKSRWQQGNVFSCSVMHEALHNHYTQKSLSLSPGK
notes: Positions are EU numbers, not positions on the entry; also called F241S/F243R mutant knob

Test [1] concerns the target B2. As to the kind of experiment: SPR (BioRad ProteOn), ligand hole wild-type immobilized on NHS activated sensor, analyte knob F241S/F243R 6.25-200 nM.
Test [2] deals with T1, hole F241S/F243R (human, UniProt P0DOX5 223-449 = IgG part, F241S; F243R).
T1 construct: SPR ligand named only 'hole F241S/F243R'; Positions are EU numbers
As to the kind of experiment: SPR (BioRad ProteOn), ligand hole F241S/F243R immobilized on NHS activated sensor, analyte knob F241S/F243R 6.25-200 nM.

B1: hole Fc, wild-type hole (single Fc chain, hinge cysteines mutated to serine) (other)
chain: DKTHTSPPSPAPELLGGPSVFLFPPKPKDTLMISRTPEVTCVVVDVSHEDPEVKFNWYVDGVEVHNAKTKPREEQYNSTYRVVSVLTVLHQDWLNGKEYKCKVSNKALPAPIEKTISKAKGQPREPQVYTLPPSREEMTKNQVSLSCAVKGFYPSDIAVEWESNGQPENNYKTTPPVLDSDGSFFLVSKLTVDKSRWQQGNVFSCSVMHEALHNHYTQKSLSLSPGK
notes: IgG1 Fc with T366S, L368A, Y407V only, made in E. coli in the same manner as the knob/knob Fc; also called hole wild-type; hole/hole homodimer
For B1, the Kd (in general, the equilibrium constant for the complex coming apart) in test [1] is less than 10 nM.
Consider B2, for which the Kd in test [2] was less than 10 nM.
